This note sets out measurements from patent publication EP1652858A1.

Where two headings read alike, the source gives them in different places.

Test [1] has as its target HLA-B0801 (human). The test is described as follows: competition vs labelled reference peptide. To be noted: remark: other sources report otherwise.
The target in test [2] is HLA-B*0702 (human). The test is described as follows: competition binding assay against a labelled reference peptide; Ki from IC50. To be noted: remark: other sources report otherwise.
The target of another test is HLA-B0702 (human). As to the kind of experiment: competition vs labelled reference peptide.
In test [3] the target is HLA-B*0702 (human). As to the kind of experiment: competition binding assay, purified HLA, labelled probe peptide.
Test [4] addresses HLA-B0801 (human). The test is described as follows: competition binding assay with labelled reference peptide.
Another test has as its target HLA-Cw0702 (human). Described as above.
The next test deals with HLA-B*3501 (human). The test is described as follows: competition binding assay, purified HLA, labelled probe peptide.
The mark [5] stands for this setting: remark: other sources report otherwise.

B1: … (peptide)
peptide: EARQAIRSL
modifications: not checked
With B1, the Ki with HLA-B0801 (human) [1] turned out to be 9 nM.

B2: … (peptide)
peptide: APTLWARMIL
modifications: not checked
As for B2, the inhibition constant (Ki) in the test with HLA-B*0702 (human) [2] and with HLA-B0702 (human) (setting [5]) was 1 nM throughout.

B3: IPLVGAPL (peptide)
peptide: IPLVGAPL
modifications: not checked
In turn, B3 yielded a half-maximal inhibitory concentration (IC50) with HLA-B*0702 (human) [3] of 25 nM. In the test with HLA-B0801 (human) [1], the Ki is 20 nM.

B4: LPRRGPRL (peptide)
peptide: LPRRGPRL
modifications: not checked
B4: the inhibition constant (Ki) in the test with HLA-B0702 (human) (setting [5]) came out at 1 nM; with HLA-B0801 (human) [4] (setting [5]), 6 nM.

B5: … (peptide)
peptide: ARLIVFPDL
modifications: not checked
As for B5, in the test with HLA-Cw0702 (human), the inhibition constant Ki is 514 nM.

B6: … (peptide)
peptide: TPGERPSGM
modifications: not checked
In turn, B6 yielded an IC50 with HLA-B*0702 (human) [3] of 199 nM. The inhibition constant Ki in the test with HLA-B0702 (human) is 199 nM.

B7: … (peptide)
peptide: YLKGSSGGPL
modifications: not checked
In the case of B7, the Ki with HLA-B0801 (human) [4] was 10 nM.

B8: … (peptide)
peptide: APTGSGKST
modifications: not checked
In the test with HLA-B*0702 (human) [3], B8 came in with a 50% inhibitory concentration (IC50) of 370 nM. Further, the inhibition constant Ki with HLA-B0702 (human) worked out at 370 nM.

B9: … (peptide)
peptide: RTKLKLTPI
modifications: not checked
B9: the inhibitory constant (Ki) with HLA-B0801 (human) [4] is 2 nM.

B10: … (peptide)
peptide: LPRRGPRLGV
modifications: not checked
Turning to B10, the Ki in the test with HLA-B*0702 (human) [2] and in the test with HLA-B0702 (human) (setting [5]) was 3 nM throughout.

B11: … (peptide)
peptide: TYSTYGKFL
modifications: not checked
As for B11, the inhibition constant (Ki) in the test with HLA-Cw0702 (human) stood at 1020 nM.

B12: … (peptide)
peptide: LPAILSPGAL
modifications: not checked
In the test with HLA-B*3501 (human), B12 yielded a concentration for half-maximal inhibition (IC50) of 550 nM.

B13: … (peptide)
peptide: VRVCEKMAL
modifications: not checked
In turn, B13 registered an inhibition constant Ki with HLA-Cw0702 (human) of 377 nM.

B14: … (peptide)
peptide: TIMAKNEVF
modifications: not checked
Molecule B14 displayed an inhibition constant Ki with HLA-B0801 (human) [4] of 6 nM.

B15: … (peptide)
peptide: APLGGAARAL
modifications: not checked
In the case of B15, in the test with HLA-B*0702 (human) [3] (setting [5]), the IC50 was found to be 0.8 nM. The inhibitory constant (Ki) with HLA-B*0702 (human) [2] and with HLA-B0702 (human) (setting [5]) was 1 nM throughout.

B16: … (peptide)
peptide: KPTLHGPTPL
modifications: not checked
B16 showed an IC50 with HLA-B*0702 (human) [3] (setting [5]) of 5.8 nM. For the same molecule, the Ki in the test with HLA-B*0702 (human) [2] and in the test with HLA-B0702 (human) (setting [5]) was 6 nM throughout.

B17: … (peptide)
peptide: QPRGRRQPI
modifications: not checked
In the case of B17, the results for the Ki with HLA-B*0702 (human) [2], with HLA-B0702 (human) (setting [5]) and with HLA-B0801 (human) [4] (setting [5]) were 1 nM, 1 nM and 3 nM, respectively.
